The target of data set [1] is Rv0535 (M. tuberculosis methylthioadenosine phosphorylase, MTAP) (Mycobacterium tuberculosis, UniProt O06401). As to the kind of experiment: HPLC cleavage assay at […]. The data set is classed as biochemical.
Data set [2] has as its system CSC[C@H]1O[C@@H](n2cnc3c(N)ncnc32)[C@H](O)[C@@H]1O. Briefly: purified protein. Conditions: phosphate.
For data set [3], the system named is Nc1ncnc2c1ncn2[C@@H]1O[C@H](CO)[C@@H](O)[C@H]1O. As to the kind of experiment: purified protein. Conditions: phosphate.

Rv0535 (M. tuberculosis methylthioadenosine phosphorylase, MTAP), sequence (O06401 whole entry): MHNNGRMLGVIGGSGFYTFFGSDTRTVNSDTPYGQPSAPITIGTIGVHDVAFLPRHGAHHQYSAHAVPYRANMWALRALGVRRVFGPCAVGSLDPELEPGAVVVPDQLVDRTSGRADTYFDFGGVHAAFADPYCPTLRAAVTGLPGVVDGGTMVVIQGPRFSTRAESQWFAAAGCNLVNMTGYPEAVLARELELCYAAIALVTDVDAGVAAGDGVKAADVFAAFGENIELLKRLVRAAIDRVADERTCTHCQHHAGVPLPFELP

For the molecule `Nc1ncnc2c1ncn2[C@@H]1O[C@H](CSCC[C@H](N)C(=O)O)[C@@H](O)[C@H]1O` [S-Adenosyl-L-homocysteine], in data set [1], the “Enzyme Activity (nmoles mg^-1 hr^-1) ^a” value came out at 800 ± 100 nmol/mg/h. A word on the kcat: it is the number of substrate molecules converted per active site and unit of time at saturation. Broadly, the Km is the substrate concentration at which the rate is half of its maximum. Consider “Rv0535 (M. tuberculosis methylthioadenosine phosphorylase, MTAP) (Mycobacterium tuberculosis H37Rv)”, for which the kcat in data set [2] is 0.4 ± 0.2 s⁻¹. The Km in data set [3] amounted to 1700 ± 200 µM.
